Measurements as given in patent publication US20120077731A1 (Ablynx, published 2012).
“And” between values parts separate entries of the source, which are not always exact repeats. Identical values can stand only once.

T1: Human membrane IL-6R on cells (human, UniProt P08887 20-468)
T1 sequence (looked up): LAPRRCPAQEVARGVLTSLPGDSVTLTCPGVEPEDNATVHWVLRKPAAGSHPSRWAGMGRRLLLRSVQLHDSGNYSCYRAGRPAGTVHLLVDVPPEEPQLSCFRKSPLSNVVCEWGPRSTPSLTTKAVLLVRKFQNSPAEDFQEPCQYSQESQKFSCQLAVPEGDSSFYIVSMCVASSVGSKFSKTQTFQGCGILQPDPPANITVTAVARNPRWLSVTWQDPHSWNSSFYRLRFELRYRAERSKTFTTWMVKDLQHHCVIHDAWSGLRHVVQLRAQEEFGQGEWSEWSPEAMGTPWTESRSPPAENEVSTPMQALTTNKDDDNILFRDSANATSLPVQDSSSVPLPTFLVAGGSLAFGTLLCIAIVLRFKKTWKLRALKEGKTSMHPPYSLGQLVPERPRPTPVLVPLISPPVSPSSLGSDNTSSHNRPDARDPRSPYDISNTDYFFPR

T2: Human soluble IL-6R (human, UniProt P08887 20-358)
T2 construct: Soluble recombinant form; biotinylated in some assays; also called hIL-6R; human IL-6R
T2 sequence (looked up): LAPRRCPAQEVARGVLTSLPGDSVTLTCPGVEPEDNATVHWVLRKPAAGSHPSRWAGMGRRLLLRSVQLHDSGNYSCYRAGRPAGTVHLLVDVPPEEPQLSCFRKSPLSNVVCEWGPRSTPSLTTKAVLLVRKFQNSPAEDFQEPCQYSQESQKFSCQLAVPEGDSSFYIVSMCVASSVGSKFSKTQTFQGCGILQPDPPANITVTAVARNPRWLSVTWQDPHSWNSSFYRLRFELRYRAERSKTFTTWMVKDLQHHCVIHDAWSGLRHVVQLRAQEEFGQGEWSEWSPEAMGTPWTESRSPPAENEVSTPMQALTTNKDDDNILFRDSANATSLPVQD

T3: Mouse IL-6R (mouse, UniProt P22272 20-364, limits assumed)
T3 construct: also called mouse sIL-6R
T3 sequence (looked up): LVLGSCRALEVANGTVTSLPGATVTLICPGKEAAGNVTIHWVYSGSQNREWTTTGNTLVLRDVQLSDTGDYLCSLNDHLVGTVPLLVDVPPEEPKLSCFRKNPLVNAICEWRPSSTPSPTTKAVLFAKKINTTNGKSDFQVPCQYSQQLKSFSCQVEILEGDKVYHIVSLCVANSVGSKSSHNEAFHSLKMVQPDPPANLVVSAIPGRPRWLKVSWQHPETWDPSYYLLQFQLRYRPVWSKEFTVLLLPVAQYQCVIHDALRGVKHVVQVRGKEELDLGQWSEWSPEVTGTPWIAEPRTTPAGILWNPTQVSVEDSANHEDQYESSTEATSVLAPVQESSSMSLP

B1: IL6R07 (VHH)
VHH: EVQLVESGGGLVQPGGSLRLSCAASGFTLDYGAIGWFRQAPGKEREGVSCISSSTGSTYYADSVKGRFTISRDNGKNTVYLQMNSLKPEDTAVYYCAADKMWSPCLVAANEEALFEYDYWGQGTQVTVSS
notes: also called PMP33A3; not shown: C-terminal c-myc and (His)6 tags
B2: IL6R12 (VHH)
VHH: EVQLVESGGGLVQAGGSLRLSCAASGRTFSSYDMGWYRQAPGKEREFVAIITWNSSTYYADSVKGRFTISRDNAKNTVYLQMNSLKPEDTAIYYCNAQYGLGYAEDYWGQGTQVTVSS
notes: also called PMP35F4; not shown: C-terminal c-myc and (His)6 tags
B3: IL6R14 (VHH)
VHH: EVQLVESGGGLVQPGGSLRLSCAASGFSLDYYAIGWFRQAPGKEREGVSCMDSSSGTTSTYYSDSVKGRFTISRDDAKNTVYLQMNSLKPEDTAVYYCAADGHLNWGQRYVPCSQISWRGWNDYWGQGTQVTVSS
notes: also called PMP40H5; not shown: C-terminal c-myc and (His)6 tags
B4: IL6R05 (VHH)
VHH: EVQLVESGGGLVQPGGSLRLSCAASGFTFGSYDMSWVRQAPGKGPEWVSAINSGGGSTYYADSVKGRFTISRDNAKNTLYLQMNSLKPEDTAVYYCATDWRYSDYDLPLPPPGDYWGQGTQVTVSS
notes: also called PMP32E10; not shown: C-terminal c-myc and (His)6 tags
B5: IL6R11 (VHH)
VHH: EVQLVESGGGLVQAGGSLRLSCAASGFTFDDYAIGWFRQAPGKEHEGVSCISSSDGSTYYADSVKGRFTISSDNAKNTVYLQMNSLKPEDTAVYYCAAERDVPARSLCGSYYWYDYRGQGTQVTVSS
notes: also called PMP35E11; not shown: C-terminal c-myc and (His)6 tags
B6: IL6R85 (VHH)
VHH: EVQLVESGGGLVQPGGSLRLSCAASGFTFDDYGMSWVRQAPGRGLEWVSAISWNGNNTYYTESMKGRFTISRDNAKNTLYLQMNSLRPEDTAVYYCVKGSTAIVGVPPTYPDEYDYWGQGTLVTVSS
notes: IL6R13 variant, tested as periplasmic extract
B7: IL6R87 (VHH)
VHH: EVQLVESGGGLVQPGGSLRLSCAASGFTFDDYGMSWVRQAPGKATEWVSAISWNGNNTYYTESMKGRFTISRDNAKNTLYLQMNSLRPEDTAVYYCVKGSTAIVGVPPTYPDEYDYWGQGTLVTVSS
notes: as for B6
B8: IL6R90 (VHH)
VHH: EVQLVESGGGLVQPGGSLRLSCAASGFTFDDYGMSWVRQAPGKALEWVSAISWNGNNTYYTESMKGRFTISRDNAKNTLYLQMNSLRPEDTAVYYCVKGSTAIVGVPPTYPDEYDYWGQGTLVTVSS
notes: as for B6
B9: IL6R89 (VHH)
VHH: EVQLVESGGGLVQPGGSLRLSCAASGFTFDDYGMSWVRQAPGRGTEWVSAISWNGNNTYYTESMKGRFTISRDNAKNTLYLQMNSLRPEDTAVYYCVKGSTAIVGVPPTYPDEYDYWGQGTLVTVSS
notes: as for B6
B10: IL6R86 (VHH)
VHH: EVQLVESGGGLVQPGGSLRLSCAASGFTFDDYGMSWVRQAPGRALEWVSAISWNGNNTYYTESMKGRFTISRDNAKNTLYLQMNSLRPEDTAVYYCVKGSTAIVGVPPTYPDEYDYWGQGTLVTVSS
notes: as for B6
B11: IL6R09 (VHH)
VHH: EVQLVESGGGLVQAGGSLRLSCAASGRTSSSYDMTWYRQVPGKEREFVAVISWSGGSTYYADSVKGRFTISRDNAKNTVYLQMNSLKPEDTAIYYCNAYTGGGDDYWGQGTQVTVSS
notes: also called PMP34G9; not shown: C-terminal c-myc and (His)6 tags
B12: IL6R08 (VHH)
VHH: EVQLVESGGGLVQPGGSLRLSCVASGFSLDYYVIGWFRQAPGKEREGVSCISSSDGSTYYADSVKGRFTISRDNAKNTVYLQMNSLKPEDTAVYYCAADLLRTPEFCVDSAPYDYWGQGTQVTVSS
notes: also called PMP34A12; not shown: C-terminal c-myc and (His)6 tags
B13: IL6R10 (VHH)
VHH: EVQLVESGGGLVQAGGSLRLSCAASGRTFSSYDMGWYRQAPGKEREFVAVIHWSSGSTYYADPVKGRFTISRDNAKNTVYLQMNSLKPEDTAIYYCNAFLPGPEGFHDYWGQGTQVTVSS
notes: also called PMP35C10; not shown: C-terminal c-myc and (His)6 tags

Columns and labels:
[1] = target: T1, Human membrane IL-6R on cells; test: cell-based or functional assay
[2] = target: T2, Human soluble IL-6R; test: Alphascreen, 100 nM Nanobody, 0.4 nM bio-IL-6R; competitor: reference Fab
[3] = target: T2, Human soluble IL-6R; test: SPR Biacore 3000, IL-6R amine-coupled to CM5
Description: (§1) Nanobodies were injected at 5 different concentrations between 1 and 50 nM. Flow rate was 45 μl/min in all experiments. Association and dissociation phase were 3 and 10 min, respectively. The chip was regenerated using Glycine/HCl pH 1.5.

[4] = target: T3, Mouse IL-6R; test: ELISA: plate coated with 1 µg/ml mouse IL-6R, 500 nM Nanobody, anti-myc + anti-mouse-HRP
Description: Detection was performed with anti-myc and anti-mouse-HRP as first and second antibody respectively.

[5] = target: T2, Human soluble IL-6R; test: Alphascreen, inhibition of bio-IL-6 binding to IL-6R
Description: (§2) Finally streptavidin donor beads were added and after 1 hour incubator the plate was read on the Envision microplate reader.

[6] = target: T2, Human soluble IL-6R; test: inhibition of the IL-6/IL-6R interaction, summary table C-13
Description: as §2

[7] = target: T1, Human membrane IL-6R on cells; test: cell-based or functional assay; remark: listed apart in the source
[8] = target: T1, Human membrane IL-6R on cells; test: cell-based or functional assay; remark: listed apart in the source
[9] = target: T2, Human soluble IL-6R; test: Biacore off-rate, periplasmic extract
[10] = target: T2, Human soluble IL-6R; test: competition for IL-6R, competitor reference Fab, summary table C-13
[11] = target: T2, Human soluble IL-6R; test: summary table C-13 of Nanobody characteristics, Kd on IL-6R
Description: as §1

[12] = target: T2, Human soluble IL-6R; test: Biacore off-rate, periplasmic extracts

Binder | IC50 (nM) XG-1 [1] | Residual reference-Fab binding to IL-6R (%) [2] | koff [3] | binding result [4] | IC50 [5] | IC50 [6] | IC50 (nM), XG-1 cell proliferation [7] | IC50 (nM), TF1 cell proliferation [8] | koff [9] | Ref Fab competition (%) [10] | Kd [11] | Kd [3] | kon [3] | IC50 (nM) + HSA, XG-1 cell proliferation [7] | koff [12]
B1 | 50.5 nM | 80% | 0.000242 s⁻¹ | no binding (tested: 500 nM) | 1.44 nM | 1.44 nM | 50.5 nM | 375 nM | 0.000242 s⁻¹ | 80% | – | – | – | – | –
B2 | 2.8 nM | 103% | 0.00116 s⁻¹ and 0.000896 s⁻¹ | no binding (tested: 500 nM) | 0.517 nM | 0.52 nM | 2.8 nM | 6.8 nM | 0.000896 s⁻¹ | 103% | 1.7 nM | 1.7 nM | 678000 M⁻¹ s⁻¹ | – | –
B3 | 0.6 nM | 96% | 0.0001 s⁻¹ and 0.000114 s⁻¹ | no binding (tested: 500 nM) | 0.222 nM | 0.22 nM | 0.6 nM | 1.5 nM | 0.000114 s⁻¹ | 96% | 0.3 nM | 0.3 nM | 402000 M⁻¹ s⁻¹ | 0.8 nM | –
B4 | 7.3 nM | 64% | 0.00141 s⁻¹ and 0.00127 s⁻¹ | no binding (tested: 500 nM) | 0.626 nM | 0.63 nM | 7.3 nM | 38 nM | 0.00127 s⁻¹ | 64% | 9.8 nM | 9.8 nM | 144000 M⁻¹ s⁻¹ | – | –
B5 | 5.4 nM | 40% | 0.00034 s⁻¹ and 0.000396 s⁻¹ and 0.000417 s⁻¹ | no binding (tested: 500 nM) | 0.158 nM | 0.16 nM | 5.4 nM | 9.9 nM | 0.000417 s⁻¹ | 40% | 0.9 nM | 0.9 nM and 1.9 nM | 391000 M⁻¹ s⁻¹ and 215000 M⁻¹ s⁻¹ | – | –
B6 | – | – | – | – | – | – | – | – | – | – | – | – | – | – | 0.0021 s⁻¹
B7 | – | – | – | – | – | – | – | – | – | – | – | – | – | – | 0.00011 s⁻¹
B8 | – | – | – | – | – | – | – | – | – | – | – | – | – | – | 0.0019 s⁻¹
B9 | – | – | – | – | – | – | – | – | – | – | – | – | – | – | 0.00019 s⁻¹
B10 | – | – | – | – | – | – | – | – | – | – | – | – | – | – | 0.0017 s⁻¹
B11 | 2.7 nM | 62% | 0.00129 s⁻¹ and 0.0013 s⁻¹ and 0.00139 s⁻¹ | no binding (tested: 500 nM) | 0.238 nM | 0.24 nM | 2.7 nM | 8.7 nM | 0.00139 s⁻¹ | 62% | 2 nM | 2 nM and 1.2 nM | 641000 M⁻¹ s⁻¹ and 1.11e+06 M⁻¹ s⁻¹ | 3 nM | –
B12 | 36.6 nM | 99% | 0.00197 s⁻¹ | no binding (tested: 500 nM) | 1.18 nM | 1.18 nM | 36.6 nM | 24.3 nM | – | 99% | 10.2 nM | 10.2 nM | 194000 M⁻¹ s⁻¹ | – | –
B13 | 2.5 nM | 102% | 0.000526 s⁻¹ and 0.000509 s⁻¹ | no binding (tested: 500 nM) | 0.596 nM | 0.6 nM | 2.5 nM | 9.9 nM | 0.000509 s⁻¹ | 102% | 1.3 nM | 1.3 nM | 414000 M⁻¹ s⁻¹ | – | –
